Results taken from paper doi:10.1101/2023.05.30.542831.

Target: APB-R3, long-acting recombinant human IL-18BP linked to the human albumin-binding Fab fragment SL335 (human)
Assay: SPR

## human IL-18 (from UniProt Q14116 37-193) (ligand)
  Kd: 0.0609 nM
